Patent US7214517B2, “α1,2-fucosyltransferase and DNA encoding the same” (Kyowa Hakko Kogyo Co., Ltd., priority 2001, dated 2007)

Legend:
[1] = Production of fucosyllactose in the presence or absence of GDP (feedback inhibition, Example 8); format: biochemical; conditions: conclusion from Table 2
Procedure: (§1) Escherichia coli DH5α/pHMFT80 obtained in Example 5 was inoculated on 8 ml of LB medium [containing 10 g/l bacto tryptone (manufactured by Difco), 10 g/l yeast extract (manufactured by Difco) and 5 g/l NaCl] containing 50 μg/ml ampicillin in a test tube, and cultured at 30° C. for 12 hours. The culture was inoculated into 8 ml of LB medium containing 50 μg/ml ampicillin, with an inoculum size of 5%, and cultured at 30° C. for 2 hours. Then, isopropyl-β-D-thiogalactopyranoside was added thereto at a final concentration of 1 mmol/l, and further cultured at 30° C. for 8 hours. Wet cells were obtained by centrifuging 1 ml of the culture. Since the wet cells can be stored at −20° C., if necessary, it was able to use them by thawing-prior to use.
(§2) The reaction was carried out at 32° C. for 9 hours in 0.1 ml of a reaction solution composed of the wet cells of Escherichia coli DH5α/pHMFT80 prepared from 1 ml of the culture, 50 mmol/l of a citrate buffer (pH 7.0), 10 mmol/l MnCl2, 10 mmol/l lactose, 10 mmol/l GDP-fucose and 4 g/l Nymeen S-215.
Fucosyllactose was produced in a similar manner described in Example 7 in the presence or absence of 5 mmol/l guanosine 5′-diphosphate (GDP) using lactose as an acceptor carbohydrate.

[2] = Production of fucose-containing carbohydrate from different acceptor carbohydrates, wet cells as enzyme source (Example 7); format: biochemical; conditions: conclusion from Table 1
Procedure: as §1, §2
• Column: CarboPAC PA10 • Eluent:. A; H2O, B; 500 mmol/l NaOH • Gradient: Concentration of the eluent B at 0 minute is adjusted to 8% and increased to 20% spending 21 minutes. • Detector: Pulsed amperometry detector
Escherichia coli DH5α/pHMFT80 and Escherichia coli DH5α/pHPFT80 respectively obtained in. […]

B1: Helicobacter mustelae-derived α1,2-fucosyltransferase: Protein comprising the amino acid sequence of SEQ ID NO:1, from Helicobacter mustelae ATCC 43772 (protein, listed as Helicobacter mustelae)
chain: MDFKIVQVHGGLGNQMFQYAFAKSLQTHLNIPVLLDTTWFDYGNRELGLHLFPIDLQCASAQQIAAAHMQNLPRLVRGALRRMGLGRVSKEIVFEYMPELFEPSRIAYFHGYFQDPRYFEDISPLIKQTFTLPHPTEHAEQYSRKLSQILAAKNSVFVHIRRGDYMRLGWQLDISYQLRAIAYMAKRVQNLELFLFCEDLEFVQNLDLGYPFVDMTTRDGAAHWDMMLMQSCKHGIITNSTYSWWAAYLIKNPEKIIIGPSHWIYGNENILCKDWVKIESQFETKS
sensitivity to feedback inhibition by GDP compared to Helicobacter pylori-derived α1,2-fucosyltransferase [1]: more insensitive to feedback inhibition by GDP | activity compared to Helicobacter pylori-derived α1,2-fucosyltransferase [2]: higher activity | substrate specificity compared to Helicobacter pylori-derived α1,2-fucosyltransferase [2]: higher substrate specificity to lactose
